Assay results taken from the supplement of paper PMC9732359.
± gives the uncertainty stated by the source.

Assay: protein stability index of a GFP-peptide fusion (yeast GPS) (PSI 1-4); higher = more stable; sorted into four equal gates, so the index is relative within each strain
In short: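 Plasmids in a pooled yeast library fused tiled 17-residue yeast protein peptides downstream of GFP and also expressed Cherry. Mid-log cultures grown without leucine were sorted into four equal gates by GFP/Cherry fluorescence ratio. Each gate's plasmids were PCR-amplified and Illumina-sequenced, and reads were matched to strains by barcodes. The protein stability index is derived by multiplying each gate's read frequency by its gate number and summing the results.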

Row | Sequence | protein stability index (doa10∆) | protein stability index (pdr5∆) | protein stability index (san1∆) | protein stability index (ubr1∆)
1 | ANTNSVTSMEAAREKKI [YIL149C/MLP2] | 3 ± 0.077 | 3.05 ± 0.078 | 3 ± 0.049 | 3.01 ± 0.047
2 | TFIKDCLFTKCLEDPEK [POP4] | 1.57 ± 0.11 | 1.78 ± 0.091 | 1.57 ± 0.18 | 1.83 ± 0.061
3 | NSAIANEQEEKSEEVKA [RPC37] | 2.61 ± 0.08 | 2.79 ± 0.11 | 2.61 ± 0.055 | 2.62 ± 0.08
4 | SDDIISQVDPITLFVLV [FAS2] | 1.19 ± 0.045 | 1.38 ± 0.068 | 1.33 ± 0.17 | 1.23 ± 0.064
5 | LKVLSGDEGYNEDMVRR [SNF12] | 3.48 ± 0.13 | 3.22 ± 0.13 | 3.25 ± 0.095 | 3.56 ± 0.15
6 | QQPQTNTAPGLGNTVST [YGR119C/NUP57] | 3.03 ± 0.097 | 3.34 ± 0.1 | 3.04 ± 0.073 | 3.06 ± 0.058
7 | ILCIFEGEKCHPQDFGN [SEC65] | 2.13 ± 0.059 | 2.39 ± 0.066 | 2.14 ± 0.087 | 2.44 ± 0.053
8 | DDSSSDNDSLTDLESLS [SIR4] | 3.15 ± 0.058 | 3.28 ± 0.043 | 3.09 ± 0.044 | 2.95 ± 0.042
9 | FQLVNDVMDELITSSAR [SIR3] | 3.36 ± 0.14 | 2.9 ± 0.087 | 3.42 ± 0.068 | 3.23 ± 0.071
10 | VSISTSVKPHVVEPEHM [SIR4] | 2.54 ± 0.078 | 2.99 ± 0.089 | 2.53 ± 0.087 | 2.65 ± 0.052
11 | VMDTIQEQITLYDHWDK [SSN8] | 3.14 ± 0.12 | 2.96 ± 0.09 | 2.63 ± 0.095 | 2.82 ± 0.068
12 | TLLARAVAHHTDCKFIR [RPT6] | 3.09 ± 0.11 | 3.03 ± 0.076 | 1.86 ± 0.14 | 2.23 ± 0.15
13 | NACAKYGRDDMENIKKS [ISW2] | 2.91 ± 0.11 | 2.93 ± 0.12 | 3.08 ± 0.078 | 3.06 ± 0.086
14 | EEAAEESDDDMGFGLFD [RPP1B] | 3.14 ± 0.059 | 2.87 ± 0.073 | 3.371 ± 0.029 | 3.23 ± 0.037
15 | LANRSKENFILDSLMKT [YJL039C/NUP192] | 2.47 ± 0.095 | 2.64 ± 0.12 | 3.03 ± 0.12 | 2.69 ± 0.069
16 | SNDFEEGSTIRYLAVTL [YMR129W/POM152] | 2.06 ± 0.05 | 2.28 ± 0.049 | 2.12 ± 0.062 | 2.26 ± 0.053
17 | TESPLKTVDSSIQPIES [SSN2] | 2.99 ± 0.066 | 2.93 ± 0.053 | 2.91 ± 0.053 | 2.93 ± 0.03
18 | NRGVKLEIVYGYALRDV [RPP1] | 2.54 ± 0.084 | 2.64 ± 0.077 | 2.46 ± 0.092 | 3.04 ± 0.065
19 | EELRDLYQTYHVLVGDL [FAS1] | 2.26 ± 0.071 | 2.54 ± 0.054 | 2.22 ± 0.059 | 2.38 ± 0.049
20 | EVNISSLDAREANFDLI [RPC40] | 3.4 ± 0.11 | 3.37 ± 0.095 | 3.17 ± 0.095 | 3.22 ± 0.068

Row | Sequence | protein stability index (doa10∆) | protein stability index (pdr5∆) | protein stability index (san1∆) | protein stability index (ubr1∆)
21 | DDINKAKAVWENIIIVG [ARP9] | 1.58 ± 0.05 | 2.17 ± 0.082 | 1.67 ± 0.092 | 2.03 ± 0.073
22 | YGFSNKEYISRLWHTLK [SNF5] | 1.57 ± 0.098 | 2.56 ± 0.21 | 2.39 ± 0.2 | 1.19 ± 0.13
23 | QGNYVTEDIREGDQAEV [YMR129W/POM152] | 3.49 ± 0.086 | 3.32 ± 0.073 | 3.3 ± 0.066 | 3.39 ± 0.083
24 | IDATLKEELLRDGVLTV [RRP45] | 1.8 ± 0.047 | 1.92 ± 0.05 | 2 ± 0.081 | 2.04 ± 0.045
25 | SVKGKVVIDAFRLIDTG [RPN11] | 1.83 ± 0.12 | 2.38 ± 0.099 | 1.92 ± 0.15 | 1.79 ± 0.061
26 | ADKKDDSESNSEPIDLI [ITC1] | 3.05 ± 0.079 | 3.32 ± 0.087 | 3.02 ± 0.12 | 3.35 ± 0.081
27 | AALGEVASMELKPTNDM [SIR2] | 3.46 ± 0.13 | 3.33 ± 0.12 | 3.52 ± 0.067 | 3.17 ± 0.13
28 | KKVQALQSDKNFLDNCL [ITC1] | 3.13 ± 0.084 | 2.83 ± 0.05 | 2.83 ± 0.046 | 3.05 ± 0.036
29 | TRAKIGGLNDPRLGSID [RPO21] | 3.03 ± 0.11 | 2.22 ± 0.077 | 2.58 ± 0.098 | 2.37 ± 0.083
30 | KIYMLYSLQPSVDITGG [RPC34] | 1.94 ± 0.13 | 2.27 ± 0.15 |  | 2.27 ± 0.14
31 | EGLTYKYPARRIHTNDN [SSN3] | 2.78 ± 0.072 | 2.89 ± 0.073 | 2.86 ± 0.076 | 2.83 ± 0.055
32 | QLPVGFKNMGNTCYLNA [UBP6] | 2.16 ± 0.073 | 1.76 ± 0.079 | 1.48 ± 0.12 | 1.6 ± 0.084
33 | PTLFDLAFNYITYDKQE [SRP68] | 2.39 ± 0.064 | 1.72 ± 0.064 | 1.77 ± 0.081 | 1.54 ± 0.059
34 | GGGRVDKPLLKAGRAFH [RPL2A] | 3.12 ± 0.048 | 3.11 ± 0.043 | 2.95 ± 0.049 | 2.99 ± 0.03
35 | DRDESSPYAAMLAAQDV [RPS14A] | 3.02 ± 0.088 | 3.21 ± 0.072 | 2.55 ± 0.09 | 3.27 ± 0.078
36 | HIKKLLHQYYGDDESKI [FAS1] | 2.24 ± 0.084 | 2.9 ± 0.085 | 3.07 ± 0.074 | 3 ± 0.12
37 | TTALLKDEEIEKLLQQD [MED8] | 3.29 ± 0.13 | 3.13 ± 0.13 | 3.05 ± 0.23 | 3.59 ± 0.14
38 | IDYLQRNDKTLELMDSK [POP1] | 3.06 ± 0.096 | 3.19 ± 0.14 | 2.64 ± 0.25 | 3.24 ± 0.14
39 | NSSVGNKTDAQAPTTGF [YJL041W/NSP1] | 3 ± 0.072 | 3.15 ± 0.056 | 3.19 ± 0.058 | 2.96 ± 0.094
